± gives the uncertainty stated by the source.

The text below walks through data of the supplement of paper PMC7877785.

The nature of the data set: self-splicing fitness, log relative to wild type (ln ratio); higher = more splicing; Tetrahymena group I intron in knt gene, E. coli kanamycin selection, DiMSum; sequences stand for … in CUCUCU…GGAGGGAAAAGUUAUCAGGCAUGCACCUGGUAGCUAGUCUUUAAACCAAUAGAUUGCAUCGGUUUAAAAGGCAAGACCGUCAAAUUGCGGGAAAGGGGUCAACAGCCGUUCAGUACCAAGUCUCAGGGGAAACUUUGAGAUGGCCUUGCAAAGGGUAUGGUAAUAAGCUGACGGACAUGGUCCUAACCACGCAGCCAAGUCCUAAGUCAACAGAUCUUCUGUUGAUAUGGAUGCAGUUCACAGACUAAAUGUCGGUCGGGGAAGAUGUAUUCUUCUCAUAAGAUAUAGUCGGACCUCUCCUUAAUGGGAGCUAGCGGAUGAAGUGAUGCAACACUGGAGCCGCUGGGAACUAAUUUGUAUGCGAAAGUAUAUUGAUUAGUUUUGGAGUACUCGUGGUCG
In short, it runs like this: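 Pooled colonies went to amplicon sequencing on an Illumina HiSeq 2500 after six replicate transformations. The plates were LB agar with 100 μg/mL carbenicillin, 50 μM IPTG and 0.2% rhamnose, with or without 25 μg/mL kanamycin, incubated overnight at 37°C or 30°C. The E. coli BL21(DE3) library had all eight P1ex-region intron nucleotides randomised, the intron placed in the knt kanamycin-resistance gene on pET-22b(+). DiMSum fitness is the error-weighted combination of replicate fold changes, kanamycin against none, normalised to wild type.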

In the case of UAGCAGCAAUAUUACGAGAG, the “self-splicing fitness (ln)” value is -2.8 ± 0.2 (30 °C) and -3.15 ± 0.29 (37 °C).

With UAGCAGCAAUAUUACGAGGU, the “self-splicing fitness (ln)” value is, setting by setting: (30 °C) -3.43 ± 0.15; (37 °C) -1.7 ± 0.13.

Take UAGCAGCAAUAUUACGAUAC: the “self-splicing fitness (ln)” value is, setting by setting: (30 °C) -4.05 ± 0.4; (37 °C) -2.2 ± 0.33.

On to UAGCAGCAAUAUUACGCGGA, for which the “self-splicing fitness (ln)” value was -0.908 ± 0.079 (30 °C) and -0.843 ± 0.082 (37 °C).

UAGCAGCAAUAUUACGCUGC: the “self-splicing fitness (ln)” value by setting is: (30 °C) -2.86 ± 0.35; (37 °C) -2.2 ± 0.32. For UAGCAGCAAUAUUACGCUGU the same measures were -3.59 ± 0.25 and -3.42 ± 0.35. The matching figures for UAGCAGCAAUAUUACGGAGA: -3.24 ± 0.33 and -2.18 ± 0.14.

For the sequence UAGCAGCAAUAUUACGGGGA, the “self-splicing fitness (ln)” value (30 °C) is -2.85 ± 0.2 and the “self-splicing fitness (ln)” value (37 °C) was -1.73 ± 0.12.

As for UAGCAGCAAUAUUACGGUGA, the “self-splicing fitness (ln)” value was -0.912 ± 0.08 (30 °C) and -0.0764 ± 0.096 (37 °C). For UAGCAGCAAUAUUACGUCCU the same measures were -1.1 ± 0.068 and -0.435 ± 0.087. The matching figures for UAGCAGCAAUAUUACGUCGC: -4.47 ± 0.24 and -2.73 ± 0.22. The matching figures for UAGCAGCAAUAUUACGUCUC: -1.96 ± 0.17 and -0.915 ± 0.15. With UAGCAGCAAUAUUACGUGCG, the “self-splicing fitness (ln)” value (30 °C) was -0.801 ± 0.076 and the “self-splicing fitness (ln)” value (37 °C) worked out at 0.26 ± 0.081. The matching figures for UAGCAGCAAUAUUACGUGGU: -3.87 ± 0.2 and -2.79 ± 0.16. On to UAGGAGCAAUAUUACGAAUC, for which, where the note is “37 °C”, the “self-splicing fitness (ln)” value was -2.02 ± 0.26. In the case of UAGGAGCAAUAUUACGACUU, the “self-splicing fitness (ln)” value (30 °C) is -0.556 ± 0.14 and the “self-splicing fitness (ln)” value (37 °C) worked out at 0.485 ± 0.19. The matching figures for UAGGAGCAAUAUUACGAGCC: -3.1 ± 0.3 and -2.82 ± 0.47. For UAGGAGCAAUAUUACGAGCG the same measures were -3.58 ± 0.4 and -1.31 ± 0.35.

As for UAGGAGCAAUAUUACGAUUU, the “self-splicing fitness (ln)” value was -2.44 ± 0.15 (30 °C) and -1.4 ± 0.24 (37 °C). For UAGGAGCAAUAUUACGCUUA the same measures were -1.49 ± 0.18 and -0.834 ± 0.27. With UAGGAGCAAUAUUACGGCAA, for the setting “37 °C”, the “self-splicing fitness (ln)” value is -1.07 ± 0.2. Consider UAGGAGCAAUAUUACGGCGA, for which the “self-splicing fitness (ln)” value runs as follows: (30 °C) -1.51 ± 0.17; (37 °C) -1.46 ± 0.18. For UAGGAGCAAUAUUACGGGUU the same measures were -4.52 ± 0.42 and -2.56 ± 0.27. For UAGGAGCAAUAUUACGUAGA the same measures were -1.5 ± 0.2 and -1.06 ± 0.16.

UAGGAGCAAUAUUACGUCCG: the “self-splicing fitness (ln)” value reads like this: (30 °C) -0.262 ± 0.28; (37 °C) 1.13 ± 0.28. Consider UAGGAGCAAUAUUACGUGGU, for which the “self-splicing fitness (ln)” value runs as follows: (30 °C) -3.87 ± 0.29; (37 °C) -2.26 ± 0.24. For UAGGAGCAAUAUUACGUGUG the same measures were -2.86 ± 0.15 and -1.72 ± 0.15. For UAGGAGCAAUAUUACGUUAA the same measures were -1.4 ± 0.28 and -2.55 ± 0.39. The matching figures for UAGGAGCAAUAUUACGUUGU: -3.31 ± 0.26 and -2.35 ± 0.23. As to UAGUAGCAAUAUUACGAAAC, the “self-splicing fitness (ln)” value (37 °C) was -2.13 ± 0.45.

Turning to UAGUAGCAAUAUUACGAAGU, the “self-splicing fitness (ln)” value runs as follows: (30 °C) -2.42 ± 0.24; (37 °C) -2.07 ± 0.33. As to UAGUAGCAAUAUUACGAAUA, the “self-splicing fitness (ln)” value is -1.33 ± 0.23 (30 °C) and -0.977 ± 0.21 (37 °C). As to UAGUAGCAAUAUUACGAAUC, the “self-splicing fitness (ln)” value (30 °C) is -2.9 ± 0.48. On to UAGUAGCAAUAUUACGAAUU, for which the “self-splicing fitness (ln)” value by setting is: (30 °C) -4.36 ± 0.36; (37 °C) -2.27 ± 0.27. The matching figures for UAGUAGCAAUAUUACGACGA: -0.284 ± 0.18 and 0.242 ± 0.16. The matching figures for UAGUAGCAAUAUUACGACGU: -1.23 ± 0.11 and -0.175 ± 0.095.

Regarding UAGUAGCAAUAUUACGAGAC, where the note is “37 °C”, the “self-splicing fitness (ln)” value was -1.37 ± 0.39. As to UAGUAGCAAUAUUACGAGCG, the “self-splicing fitness (ln)” value is, setting by setting: (30 °C) -0.586 ± 0.095; (37 °C) 0.438 ± 0.12. The matching figures for UAGUAGCAAUAUUACGAUAA: -3.02 ± 0.36 and -1.18 ± 0.2. For UAGUAGCAAUAUUACGAUGG, the “self-splicing fitness (ln)” value (30 °C) was -2.93 ± 0.12 and the “self-splicing fitness (ln)” value (37 °C) was -1.54 ± 0.11. The matching figures for UAGUAGCAAUAUUACGAUUU: -1.45 ± 0.1 and -0.988 ± 0.12. For UAGUAGCAAUAUUACGCAAG the same measures were -2.78 ± 0.45 and -1.25 ± 0.24. For UAGUAGCAAUAUUACGCAUU the same measures were -3.97 ± 0.21 and -1.52 ± 0.14. Take UAGUAGCAAUAUUACGCCGG: the “self-splicing fitness (ln)” value (30 °C) was -1.64 ± 0.21 and the “self-splicing fitness (ln)” value (37 °C) is -0.466 ± 0.24.

In the case of UAGUAGCAAUAUUACGCGGA, the “self-splicing fitness (ln)” value reads like this: (30 °C) -3.56 ± 0.47; (37 °C) -0.643 ± 0.17. The matching figures for UAGUAGCAAUAUUACGCGUC: -3.22 ± 0.38 and -1.88 ± 0.36. The matching figures for UAGUAGCAAUAUUACGCUUG: -0.659 ± 0.092 and -0.506 ± 0.13. For UAGUAGCAAUAUUACGGAAC the same measures were -2.97 ± 0.3 and -3.42 ± 0.42. Regarding UAGUAGCAAUAUUACGGGAA, the “self-splicing fitness (ln)” value was -2.79 ± 0.32 (30 °C) and -1.65 ± 0.29 (37 °C).

On to UAGUAGCAAUAUUACGGUCC, for which the “self-splicing fitness (ln)” value (37 °C) was -1.53 ± 0.35. UAGUAGCAAUAUUACGUACA: the “self-splicing fitness (ln)” value was -1.05 ± 0.064 (30 °C) and -0.269 ± 0.081 (37 °C). For UAGUAGCAAUAUUACGUAGC the same measures were -3.52 ± 0.22 and -1.37 ± 0.2. Consider UAGUAGCAAUAUUACGUCAU, for which the “self-splicing fitness (ln)” value (30 °C) is -3.57 ± 0.37. For the sequence UAGUAGCAAUAUUACGUGAU, the “self-splicing fitness (ln)” value by setting is: (30 °C) -3.84 ± 0.33; (37 °C) -2.18 ± 0.28.

For UAGUAGCAAUAUUACGUGGG, the “self-splicing fitness (ln)” value is -3.26 ± 0.25 (30 °C) and -1.41 ± 0.17 (37 °C). The matching figures for UAGUAGCAAUAUUACGUGUA: -3.16 ± 0.21 and -0.527 ± 0.12. Take UAGUAGCAAUAUUACGUUAG: the “self-splicing fitness (ln)” value by setting is: (30 °C) -1.52 ± 0.17; (37 °C) -1.97 ± 0.21. Turning to UAGUAGCAAUAUUACGUUCA, the “self-splicing fitness (ln)” value is, setting by setting: (30 °C) -0.66 ± 0.15; (37 °C) 0.327 ± 0.15. The matching figures for UAGUAGCAAUAUUACGUUCC: -4.21 ± 0.35 and -0.984 ± 0.19. As to UAGUAGCAAUAUUACGUUGU, the “self-splicing fitness (ln)” value runs as follows: (30 °C) -4.09 ± 0.25; (37 °C) -2.13 ± 0.14. UAGUAGCAAUAUUACGUUUU: the “self-splicing fitness (ln)” value was -3.14 ± 0.14 (30 °C) and -2.27 ± 0.16 (37 °C).

On to UAUAAGCAAUAUUACGAAGA, for which the “self-splicing fitness (ln)” value is, setting by setting: (30 °C) -2.72 ± 0.24; (37 °C) -1.66 ± 0.16. On to UAUAAGCAAUAUUACGACAG, for which the “self-splicing fitness (ln)” value is -0.587 ± 0.11 (30 °C) and -0.0617 ± 0.15 (37 °C). The matching figures for UAUAAGCAAUAUUACGACCU: 0.317 ± 0.2 and -0.146 ± 0.23. For UAUAAGCAAUAUUACGACUA the same measures were 0.0842 ± 0.075 and 0.29 ± 0.094.

UAUAAGCAAUAUUACGAGUC: the “self-splicing fitness (ln)” value (30 °C) is -1.69 ± 0.32. As to UAUAAGCAAUAUUACGAGUG, the “self-splicing fitness (ln)” value (30 °C) amounted to 0.0329 ± 0.08 and the “self-splicing fitness (ln)” value (37 °C) is -0.16 ± 0.099. For UAUAAGCAAUAUUACGCACU the same measures were 0.11 ± 0.12 and -0.923 ± 0.12. For UAUAAGCAAUAUUACGCCCA the same measures were -0.492 ± 0.13 and -0.495 ± 0.2.

Consider UAUAAGCAAUAUUACGCCCG, for which the “self-splicing fitness (ln)” value (30 °C) is 0.0737 ± 0.21 and the “self-splicing fitness (ln)” value (37 °C) was 0.591 ± 0.3. As to UAUAAGCAAUAUUACGCCGU, where the note is “30 °C”, the “self-splicing fitness (ln)” value is -1.41 ± 0.49.

With UAUAAGCAAUAUUACGCGAA, the “self-splicing fitness (ln)” value is -1.09 ± 0.15 (30 °C) and -0.98 ± 0.16 (37 °C). For UAUAAGCAAUAUUACGCGGG the same measures were -2.17 ± 0.14 and -1.89 ± 0.18. In the case of UAUAAGCAAUAUUACGCUGG, the “self-splicing fitness (ln)” value was -1.44 ± 0.13 (30 °C) and -0.93 ± 0.18 (37 °C).

UAUAAGCAAUAUUACGCUUA: the “self-splicing fitness (ln)” value was -1.88 ± 0.27 (30 °C) and -0.653 ± 0.2 (37 °C). The matching figures for UAUAAGCAAUAUUACGGGCU: -2.64 ± 0.31 and -1.71 ± 0.31.

Take UAUAAGCAAUAUUACGGGUU: the “self-splicing fitness (ln)” value (30 °C) is -3.04 ± 0.16 and the “self-splicing fitness (ln)” value (37 °C) is -3.53 ± 0.23. The matching figures for UAUAAGCAAUAUUACGGUAG: -1.59 ± 0.077 and -0.912 ± 0.095.
